Measurements reported in a protein production outcome set (Wang et al. 2014).

Assay: label from the status in PepcDB records

Sequence | protein production
MVTQEQRRRQLAREKFLRQQQRRTSARRKARMRNAAIASVLGVILIGSVALYTTGVVLGDDDDKTNAGAEVTPSASAPSKAPDPCDKPADGKVKTQTWKKEPAMTVDKSAKYTMKLATTCGDIDLALKADAAPHTVNSFDFLAGKGYFDHTKCHRLTTEGIYVLQCGDPTAQGNGGPGYNIPDENLKDKSLKDNVYPAGTVAMANTGQPDSGGSQFFLVYQDSQLPPSYTPFGTVSKEGMTVLKKIASAGAQPADPTTGNTAPNATVVIDKATVSKS | failed
MVVANDLSSKILPRVLIVSRRTLRKNKYVDFVGEYHLDLIVSSGAVPVIVPRVNGIHSMLQSFEPIHGVLLCEGEDVDPSLYADDELSDLSPEDMEEIKKAHAEDMTIDREKDSIELTLARLCLERNIPFLGICRGSQILNVAAGGTLYQDIDKELGTTMTTTNHIDYDNYDGHRHEARIVEETPLHKLFEEMEIMVNSYHHQGVKRLAQRFVPMAYAPDGLIEGFYDPNRYDPKEGQFLMGLQFHPERMRLPGSDEFDYPGCALVYQEFVKAVIAFQKKQVNATQVEMKRKTTTLVKSFSQAEFLEVRDSFVLHTYRLYVLPLNIGFSDMAE | failed
MVVLAVLLPVVFGALLLLGLPRALGVLGAGLSFLLNLYLFLTHPGGVAHAFQAPLLPGAGVYWAFGLDGLSALFFLTIALTVFLGALVARVEGRFLGLALLMEGLLLGLFAARDLLVFYVFFEAALIPALLMLHLYGGEGRTRALYTFVLFTLVGSLPMLAAVLGARLLSGSPTFLLEDLLAHPLQEEAAFWVFLGFALAFAIKTPLFPLHAWLPPFHQENHPSGLADALGTLYKVGVFAFFRFAIPLAPEGFAQAQGLLLFLAALSALYGAWVAFAAKDFKTLLAYAGLSHMGVAALGVFSGTPEGAMGGLYLLAASGVYTGGLFLLAGRLYERTGTLEIGRYRGLAQSAPGLAALALILFLAMVGLPGLSGFPGEFLTLLGAYKASPWLAALAFLSVIASAAYALTAFQKTFWEEGGSGVKDLAGAEWGFALLSVLALLLMGVFPGYFARGLHPLAEAFAKLLGGGA | failed
MVWGKGLARRLYGLTGVVWSKYLDIDERGRLIVKLKGYKIDIAKLVSDKQLPGAHIRILPIIRYMMDQVYEAFMEAFRKFGYKGAFKPVYPLKSNSTPIVVDTIWRYGIKYSWGFNAGTYPEVKLISKYINEKPRLLVVDGIKDNKLLDLLSKMCDSWEIIVDIESMRDADLLSKYQDLNIGLRVKVTSKSSGLWSHSSGLDSKFGLLINTLDEMVEKHPWVPNRTVLLHVHAGSQITDKNRLEDIIRETIILYNNLVKTGFKNIRYIDFGGGLAYPYIEASNHVFSANYSLNEYAEILVKELVKSAENTPDIVFEGGRYIVAPHRITVTKIIDTRPYSTSDRGETSYPIVEEIKNTENIKELVYVSRKAREVITRLMLKFPINIESRRILEKLLTSINEAITSKAYEIIHRDNDKALEELIKTPNYVLEELVSPTRRFFASFSLFSHLPDTIIADQYFKIIPLQRLNEKPEVLGVISDLTCDSMGEYSSFITFLPNNIEYETEDLFTSLDHKLMFIPGKTLRLKGVPLHIPRKNEDYYIAFLDTGAYQDMLSMNHNLLNGYPEIIIDIINDNLKIIYENLESAENYPL | failed
MVWHYSNIMHKKSKAQLQDYFKDLTAIGNASSEQMEANRDGIQGETEENINPPPQNPKKRLSLPNLSSPSLAAEAENLESAGQPGSDYLSNSFGQANKANVAVAPVNSDYIAPEKLEDQPGDFFGGKRWFWLGGILVLLVGGTALTLPKALEMVNGWRQEAQLKAYEQEQHQDSEVLRLALLPPDQRRSKLEAIANQEVLSLERSRARFLLAGDLLAEFEGGPALRVLEGLEVQYPVLAPYILLMRGRGYQLSNENDQAEATWQDILDQYPDSPVVVNALENLGSLDETYWQQAIADHPGHPRTLAILHQQLESEPNALEIQRQILQNHPTDGRTAAVINSLTANRQGELTPEDWQAMGDNFWHRRIYNQAIAPYEKAPSNARNLYRLARAQQISKLDNEAKENYRQLIATYPDSEETALALRRLAELVPPREGVQYLQQLEQQFPDQGASALAARIDLLAKFDANQAQQARQALLQKYPNSDAAADYRWRQAQEFAKAGNYTEAWRWAKEIANQNPQSDVTPKAIFWIGKWAQQLGRSADSKAAFETVLAKYPQSYYAWRSAVLLGWQVGDFNSVRFLNPPVTVPDQRPLPPAGSPTFRELYRLAQDQEAIELFNAEVRARAEGEATPELTVNEGFTEALLKLTQQEYLQGINQVLNLRNPEDPEQRKQWEELRSTRDYWQTLFPFPYQQLIFEWSEKRQVNPFLVTALIRQESRFEKNIQSPVGATGLMQIMPATAEWIAPQIGLKEYSLTDPTDNVNMGTWYFDHTHKTYNNNSALAVASYNAGPGNVAKWLQEFNNADPDLFVERIPFAETKGYVESVFGNYWNYLRIYDPDVEKLMGQVGKN | failed
MVWPHLYFSELEAQHIMTSIISSSWFKFSVVAASITGIMMLSGCAKKEAQDLTTLNIGFQKYGLLPIVKERGELDKILKKEGITIKWVEFPAGPQLLEGLNVGSVVFGEAGEAPPIFAQAANSNLVYVANQPAAPNAEALIVQKNSSVHSVQDLKGKRIALNKGSNVHYLLLKLLEKNHLTLNDIQVVYLPPADARAAFEKGAVDAWVIWDPFFAAAEQQIGARVIATGQDLVSNHQFYLADRKFAQNHPEVLKTLVKELNQSTEWVKTHQDDAAKLLEKPTALDFNILKTSISRMGFGVTPLSNTVINEQQQVADAFYQQKLIPQPLKIQDAILKGEIK | failed
MVYKNILVGLDGSSQADNAFKVACGLANALSADLHPIWIVNRDRGMDSSFGVNEDFYRDQYHQVQDKLVSYVEDAKKAGLKVTGEALVGNIKLVLANEYPKEHGIDLIVLGNTGLNTVEKLVVGSHTSYVIRNSACDVLVVK | failed
MVYPRMGRVPLPPKGAQHYTTMCQFCNVGCGYDVYVWPAGAEGSPEPGGHGIEYKIVDEAYGRNLVKQPDFTKEHTGLSAEEGEPWISEAMVVKTIRRTWERGRGTGGWREVYVAQVPSPECPINWGNHSVRGGTQAERIWSPWNIAGERRLTKPLVRFGGRLEPVSWEYAIDLVARVVKGVIDKWGIERPGWGKEGHAVFAHRMDHGGGGGGGMIFNTVVGLFFFYGVRTAFARIHNRPFFGPENPAAGDAGPGAMNTSYHDLRLADTIILWGNNPYSTATVMFVKHVLDNLRGATKAEKQRWFNPGEPVIDSRIIIVDPRRTETVEAAEAAAGKDRVLHLQVKPGTDIVLANAIARVIYERYGDVVEEFVNHYRSAAGWGFKWDEEGFQKYVSEALQVGEETLDEVLAEAESITGVPRDKIELAAKWIAERKEGGYPKRVWLMYEKGIIWNQNYRSIYSLFDLCMIAGATRGLPGCGCQRQGGHQEGFASPAPPPPPWTDERHHIAYPDKSLYDEYYNTKYPRADFYMPTTDFRLANGEGKVLWVIDMDNYRLAPNSQRLKAVVGDRAWRVTRYVFAEAYANVGGKESEPNYDPNALEPVITTPPSSREYAEKVLQALEETGGLFVIVEDIYPTFMVEDAHVVLPAAFNNGEWPDVRMGVHERRFRIADAWLDPPGEAKPDWWILANVAKRIVELYEEEGRGGDPVAERFRKAFKPIWDAMEANARDPTVEVENEIFKTYIANADEAYARLGVHWEVQYWTPEFKKLDLNILRKLRTIGTVLPITKLDVKPDGTIEVRGVVNIMEPALNDTYREEVVVVKPDGTIVRRIEVVPSNETVRSYVPGHLKPWPAVWDKYPPYVDELIRKGYKYWVVNGRYNAIWQTGYADPNVVEIMARHPMNIVQVNPEDAAKEGLENGDIVVIYNDYGSTTAMVWVTRVVAPGTIFLIMAHPKAVGANAVTTPSVDPAAQNPDYKLTLANLRKIGRADETIIKKVTFKDIRFAVR | failed
MVYSTTTGRFCGLFCLRDQMPVSTNRHPYSENTMEIIVNGEARAATPMSMLELLRSLDIDPRRVAVELNHDILPKGEYESTILNDGDRIEIVHFVGGGLEHHHHHH | not failed
MVYVGTSGFSFEDWKGVVYPEHLKPSQFLKYYWAVLGFRIVELNFTYYTQPSWRSFVQMLRKTPPDFYFTVKTPGSVTHVLWKEGKDPKEDMENFTRQIEPLIEEQRLKMTLAQFPFSFKFSRKNVEYLEKLRESYPYELAVEFRHYSWDREETYEFLRNHGITFVVVDEPKLPGLFPYRPITTTDYAYFRFHGRNERWFEAEGEERYDYLYSEEELKTLFEDVVELSRRVKETYVFFNNCYKGQAAINALQFKKMLEERV | not failed
MWDETVAGPKPEHGLGRLRNKITTQPLDIKGVGEGSSSKTVAAVAGSPGTPTTPGSARKENVWRSVFHPGSNIATRGMGTNLFDKPSHPNSPTVYDWLYSDDTRSKHR | failed
MWHIFERFVNEYERWFLVHRFAYLSELQAVKCLLPEGRGVEIGVGTGRFAVPLKIKIGVEPSERMAEIARKRGVFVLKGTAENLPLKDESFDFALMVTTICFVDDPERALKEAYRILKKGGYLIVGIVDRESFLGREYEKNKEKSVFYKNARFFSTEELMDLMRKAGFEEFKVVQTLFKHPSELSEIEPVKEGYGEGAFVVIRGTKK | not failed
MWHYLFLAIYVTMIIGIATVTKKRIKGVSDFLLGGRNVNPWMSAFSYGTAYFSAVIFIGFAGKMGWSFGIPTMWIVVGNTIIGSFLAWQVLGKKTREMTQRLGASTMPSFLEKRYKSKNLESLTAFIIFFFLVPYSASIYKGLNFLFEGFGISPMNAYILMAALTAIYLYFGGFIAATLADFVQGCIMVIGVLLMVFFLSSNPEVGGFSGMLSNLSSIDPILVSPISEASFIPIIGLALLTSIGSWGLPQMIHKFYTIKSEKAAVSAKWVSTAFAFIITFGAAYIGTVSRLFYPDAASKVAAGLTSPDMIVPKIMEIALPDWVAALILVLVISASMSTLASLVLASSSVVSIDFVKGRLKPDLSDKNTMILMRLLCVLFVALSFVLAIVPNSYVLSLMALSWGLVSGCLLAPYFLGLYWKRTTKEGVWAGITSALAIMLGGACYFGVNSVYMPAVGSLAMIAPIFVVMAVSLITKPFESEHIDYIFNKK | failed
MWITGASGGLGERIAYLCAAEGAHVLLSARREDRLIEIKRKITEEWSGQCEIFPLDVGRLEDIARVRDQIGSIDVLINNAGFGIFETVLDSTLDDMKAMFDVNVFGLIACTKAVLPQMLEQKKGHIINIASQAGKIATPKSSLYSATKHAVLGYSNALRMELSGTGIYVTTVNPGPIQTDFFSIADKGGDYAKNVGRWMLDPDDVAAQITAAIFTKKREINLPRLMNAGTKLYQLFPALVEKLAGR | failed
MWITQETWLKALPWNKKRYRSQIMEVICKHYTPLDIASQAIRTCWQSFEYSDDGGCKDKELIHRVGNIFRHSSTLEHLYYNFEIKGLSRGALQELSRHRIASLSVKSSRYTLRELKEVESFLPLNETNLERAKEFLVFVDNEKVNAMSVLALENLRILLSEHNIKNDLAKYAMPESYKTHLAYSINARSLQNFLTLRSSNKALKEMQDLAKALFDALPGEHQYLFEDCLKH | failed
MWKRLLIVSAVSAAMSSMALAAPLTVGFSQVGSESGWRAAETNVAKSEAEKRGITLKIADGQQKQENQIKAVRSFVAQGVDAIFIAPVVATGWEPVLKEAKDAEIPVFLLDRSIDVKDKSLYMTTVTADNILEGKLIGDWLVKEVNGKPCNVVELQGTVGASVAIDRKKGFAEAIKNAPNIKIIRSQSGDFTRSKGKEVMESFIKAENNGKNICMVYAHNDDMVIGAIQAIKEAGLKPGKDILTGSIDGVPDIYKAMMDGEANASVELTPNMAGPAFDALEKYKKDGTMPEKLTLTKSTLYLPDTAKEELEKKKNMGY | failed
MWKRTITVPAPYDFAHVLDRLSLDPLMAVDVERQRITVPLHLDGLKIPVVIESIGTKEAPRFVVLAPHSNRQEDILERVSHLFQWQTPLAPVYDHFRTTELAPLFARYEGLPLVLDFDLYFCLMKCFIHQQLHLKVGYRLTERFVKTFGEERDGVWFYPRPEDIAARSYDDLRALQLSRRKAEYIVDVSRLIADGTLRLDDLEQMEDGEVMERLTAIRGIGPWTVQNFLLFGLGRPNVFPPADIGLQRAVERLFQLPKRPTASELALLGERWKPYTSYAALYLWRSIE | failed
